{
  "source": "paper PMC4066776",
  "about": "“Molecular determinants of the DprA−RecA interaction for nucleation on ssDNA”",
  "target": "T1, WT DprA (Streptococcus pneumoniae, UniProt Q8DPI7 1-282)",
  "T1 sequence": "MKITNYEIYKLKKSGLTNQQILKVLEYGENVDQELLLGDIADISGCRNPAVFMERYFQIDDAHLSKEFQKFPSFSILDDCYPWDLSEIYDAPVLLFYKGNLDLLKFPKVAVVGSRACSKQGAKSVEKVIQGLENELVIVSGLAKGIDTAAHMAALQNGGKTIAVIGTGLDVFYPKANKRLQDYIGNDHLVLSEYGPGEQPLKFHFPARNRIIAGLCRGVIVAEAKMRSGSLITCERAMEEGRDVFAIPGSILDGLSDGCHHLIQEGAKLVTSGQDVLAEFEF",
  "assay": "fluorescence anisotropy; Pull-down: 200 mM NaCl, 20 mM Tris-HCl pH 7.5, 20 C, 30 min; anisotropy buffer not in the material",
  "conditions": "protein: recombinant; chain copies: 2; label: fluorescein",
  "data": [
    {"binder": "TTTTTTTTTTTTTTTTTTTT (ssDNA)", "note": "[dT20]", "values": [
      {"measurement": "binding result", "value": "binds"}
    ]}
  ]
}
